Laboratory results taken from the RNAGym collection of RNA variant scans (doi:10.1021/acssynbio.7b00057).

B1: Pistol ribozyme (parent)
chain: GGGUCGUUGUUCCAUAAUCGCGUGGAUAUGGCACGCAAGUUUCUACCGGGCACCGUAAAUGUCCGACUGGAGCCGUUCGGGCGGCUAUAAACAGACCUCAGGCCCGAAGCGUGGCGGCACCUGCCGCCGGUGGUAAAAAAGAUCGGAAGAGCACACGUCU

Variants of: B1
Experiment: aptazyme ON/OFF ratio, guanine; higher = stronger switching; co-transcriptional cleavage with and without guanine

First: U7C U8A G9C U10A
Second: U7C U8A G9C U11C C13U
The “aptazyme ON/OFF ratio” value of the first is higher: 1.74 for the first, 1.05 for the second.

First: U7C U8A G9C U11C C13G
Second: U7C U8A G9C U11C C13A
The “aptazyme ON/OFF ratio” value of the first is lower: 1.04 for the first, 1.14 for the second.

First: U7C U8A G9C U10C C12A
Second: U7C U8A G9C U10C C12G
The “aptazyme ON/OFF ratio” value of the first is higher: 1.04 for the first, 1.03 for the second.

Going from U7C U8A G9C U10C C12U to U7C U8A G9C U10G U11G C12A, the “aptazyme ON/OFF ratio” value rises from 1.15 to 1.23.

Going from U7C U8A G9C U10G U11G C12G to U7C U8A G9C U10G U11G C12U, the “aptazyme ON/OFF ratio” value falls from 1.13 to 1.12.

Going from U7C U8A G9C U10G U11A C12A to U7C U8A G9C U10G U11A C12G, the “aptazyme ON/OFF ratio” value falls from 1.38 to 1.32.

Going from U7C U8A G9C U10G U11A C12U to U7C U8A G9C U11G C12G C13U, the “aptazyme ON/OFF ratio” value falls from 1.08 to 1.05.

Going from U7C U8A G9C U11G C12G C13G to U7C U8A G9C U11G C12G C13A, the “aptazyme ON/OFF ratio” value rises from 1.07 to 1.1.

First: U7C U8A G9C U10G U11C C12A C13U
Second: U7C U8A G9C U10G U11C C12A C13G
The “aptazyme ON/OFF ratio” value of the first is higher: 1.43 for the first, 1.21 for the second.

Compared with U7C U8A G9C U10G U11C C12A C13A, U7C U8A G9C U10G U11A C13G is lower in “aptazyme ON/OFF ratio” value: 1.36 for the first, 1.11 for the second.

First: U7C U8A G9C U10G U11A C13A
Second: U7C U8A G9C U10G U11A C13U
The “aptazyme ON/OFF ratio” value of the first is higher: 1.08 for the first, 1.04 for the second.

Going from U7C U8A G9C C13U to U7C U8A G9C C13G, the “aptazyme ON/OFF ratio” value falls from 1.05 to 1.04.

First: U7C U8A G9C C13A
Second: U7C U8A G9C U10A C12A
The “aptazyme ON/OFF ratio” value of the first is lower: 1.02 for the first, 1.2 for the second.

First: U7C U8A G9C U10A C12U
Second: U7C U8A G9C U10A C12G
The “aptazyme ON/OFF ratio” value of the first is lower: 1.22 for the first, 1.26 for the second.

Going from U7C U8A G9C U10G C12G C13U to U7C U8A G9C U10G C12G C13A, the “aptazyme ON/OFF ratio” value rises from 1.15 to 1.32.

First: U7C U8A G9C U10G C12G C13G
Second: U7C U8A G9C U10A C12U C13U
The “aptazyme ON/OFF ratio” value of the first is higher: 1.13 for the first, 1.06 for the second.

First: U7C U8A G9C U10A C12U C13A
Second: U7C U8A G9C U10A C12U C13G
The “aptazyme ON/OFF ratio” value of the first is lower: 1.09 for the first, 1.11 for the second.

Compared with U7C U8A G9C U10G U11C C12U C13U, U7C U8A G9C U10G U11C C12U C13A is lower in “aptazyme ON/OFF ratio” value: 1.34 for the first, 1.19 for the second.

Going from U7C U8A G9C U10G U11C C12U C13G to U7C U8A G9A U11G C12U, the “aptazyme ON/OFF ratio” value rises from 1.27 to 1.37.

Compared with U7C U8A G9A U11G C12A, U7C U8A G9A U11G C12G is higher in “aptazyme ON/OFF ratio” value: 1.07 for the first, 1.12 for the second.

First: U7C U8A G9C U11G C12U C13G
Second: U7C U8A G9C U11G C12U C13A
The “aptazyme ON/OFF ratio” value of the first is lower: 1.14 for the first, 1.18 for the second.

Going from U7C U8A G9C U11G C12U C13U to U7C U8A G9C U10G U11G C12G C13U, the “aptazyme ON/OFF ratio” value falls from 1.13 to 1.09.

Compared with U7C U8A G9C U10G U11G C12G C13A, U7C U8A G9C U10G U11G C12G C13G is higher in “aptazyme ON/OFF ratio” value: 1.11 for the first, 1.13 for the second.

Compared with U7C U8A G9C U10A U11C C12U C13U, U7C U8A G9C U10A U11C C12U C13A is higher in “aptazyme ON/OFF ratio” value: 1.12 for the first, 1.18 for the second.

Going from U7C U8A G9C U10A U11C C12U C13G to U7C U8A G9C U11C, the “aptazyme ON/OFF ratio” value falls from 1.1 to 1.04.

Going from U7C U8A G9C U11G to U7C U8A G9C U11A, the “aptazyme ON/OFF ratio” value falls from 1.13 to 1.05.

Compared with U7C U8A G9A U11A C13G, U7C U8A G9A U11A C13A is higher in “aptazyme ON/OFF ratio” value: 1.04 for the first, 1.17 for the second.

Going from U7C U8A G9A U11A C13U to U7C U8A G9A U10G U11C, the “aptazyme ON/OFF ratio” value falls from 1.14 to 1.03.

U7C U8A G9A U10G U11G and U7C U8A G9C are the same in “aptazyme ON/OFF ratio” value: 1.04 for the first, 1.04 for the second.

Compared with U7C U8A G9C U11C C12U C13U, U7C U8A G9C U11C C12U C13A is lower in “aptazyme ON/OFF ratio” value: 1.12 for the first, 1.11 for the second.

First: U7C U8A G9C U11C C12U C13G
Second: U7C U8A G9C U11C C12A C13U
The “aptazyme ON/OFF ratio” value of the first is lower: 1.06 for the first, 1.08 for the second.

Compared with U7C U8A G9C U11C C12A C13A, U7C U8A G9C U11C C12A C13G is higher in “aptazyme ON/OFF ratio” value: 1.04 for the first, 1.07 for the second.

Going from U7C U8A G9A U11C C12G C13A to U7C U8A G9A U11C C12G C13G, the “aptazyme ON/OFF ratio” value falls from 1.16 to 1.12.

First: U7C U8A G9A U11C C12G C13U
Second: U7C U8A G9A U10G U11C C12U C13A
The “aptazyme ON/OFF ratio” value of the first is higher: 1.18 for the first, 1.15 for the second.

Going from U7C U8A G9A U10G U11C C12U C13G to U7C U8A G9A U10G U11C C12U C13U, the “aptazyme ON/OFF ratio” value rises from 1.14 to 1.17.

First: U7C U8A G9C U10G C13U
Second: U7C U8A G9C U10G C13A
The “aptazyme ON/OFF ratio” value of the first is higher: 1.35 for the first, 1.15 for the second.

Going from U7C U8A G9C U10G C13G to U7C U8A G9A U11G C12A C13U, the “aptazyme ON/OFF ratio” value falls from 1.11 to 1.09.

Compared with U7C U8A G9A U11G C12A C13G, U7C U8A G9A U11G C12A C13A is lower in “aptazyme ON/OFF ratio” value: 1.21 for the first, 1.19 for the second.

Going from U7C U8A G9C U10A U11C C12G C13U to U7C U8A G9C U10A U11C C12G C13G, the “aptazyme ON/OFF ratio” value falls from 1.36 to 1.29.

First: U7C U8A G9C U10A U11C C12G C13A
Second: U7C U8A G9C U10G U11C C13G
The “aptazyme ON/OFF ratio” value of the first is higher: 1.29 for the first, 1.05 for the second.

First: U7C U8A G9C U10G U11C C13A
Second: U7C U8A G9C U10G U11C C13U
The “aptazyme ON/OFF ratio” value of the first is higher: 1.39 for the first, 1.09 for the second.

Going from U7C U8A G9A U10G U11C C12G C13U to U7C U8A G9A U10G U11C C12G C13A, the “aptazyme ON/OFF ratio” value falls from 1.25 to 1.13.
